Laboratory results published in paper PMC4254802.
Blank lines part the entries; values can stand above or below the substance they belong to.

Experiments:
Test in all cases: cross-linking
[1] = biological target: TACE-B/ADAM10cyto (truncated human TACE with the cytoplasmic domain of ADAM10), Flag-tagged (human) (UniProt O14672)
[2] = biological target: endogenous ADAM10 of Cα cells (Chinese hamster (endogenous in Cα/CHO cells))
[3] = biological target: endogenous TACE of Cα cells (CHO cells that express TGF-α) (Chinese hamster (endogenous in Cα/CHO cells))

stoichiometry N [1]: 2
Substance: TACE-B/ADAM10cyto (truncated human TACE with the cytoplasmic domain of ADAM10), Flag-tagged (from UniProt O14672 694-748)

stoichiometry N [2]: 2
Substance: endogenous ADAM10 of Cα cells (enzyme)

stoichiometry N [3]: 2
Substance: endogenous TACE of Cα cells (CHO cells that express TGF-α) (enzyme)
